Results taken from article PMC6673701, “Structure of Myosin VI/Tom1 complex reveals a cargo recognition mode of Myosin VI for tethering” (Nature Communications, 2019).

B1: C-terminal cargo-binding domain (CBD) of Myosin VI (residues 1157–1285) (domain or fragment, human, UniProt Q9UM54-1 1157-1285, looked up)
chain: ARQREIEMNRQQRFFRIPFIRPADQYKDPQSKKKGWWYAHFDGPWIARQMELHPDKPPILLVAGKDDMEMCELNLEETGLTRKRGAEILPRQFEEIWERCGGIQYLQNAIESRQARPTYATAMLQSLLK
notes: monomer by light scattering and ultracentrifugation; 15N-labelled in some NMR experiments; also called C-terminal CBD of Myosin VI; source: E. coli BL21 (DE3), purified (Ni-NTA, SEC); not shown: thioredoxin, N-terminal, cleaved; His6, N-terminal, cleaved
B2: Tom1(215–493) (domain or fragment, human, UniProt O60784-2 215-493, looked up)
chain: EQIGKLRSELEMVSGNVRVMSEMLTELVPTQAEPADLELLQELNRTCRAMQQRVLELIPQIANEQLTEELLIVNDNLNNVFLRHERFERFRTGQTTKAPSEAEPAADLIDMGPDPAATGNLSSQLAGMNLGSSSVRAGLQSLEASGRLEDEFDMFALTRGSSLADQRKEVKYEAPQATDGLAGALDARQQSTGAIPVTQACLMEDIEQWLSTDVGNDAEEPKGVTSEGKFDKFLEERAKAADRLPNLSSPSAEGPPGPPSGPAPRKKTQEKDDDMLFAL
notes: source: E. coli BL21 (DE3), purified (Ni-NTA, SEC); not shown: thioredoxin, N-terminal, cleaved; His6, N-terminal, cleaved

molecular target: B1; experiment: SEC + SEC-MALS + AUC; analytical gel filtration, multi-angle light scattering (20 mM Tris-HCl pH 7.9, 100 mM NaCl, 1 mM DTT) and sedimentation velocity (20 °C) of each protein alone and of the complex; conditions: both partners purified

Binder | stoichiometry N
GVTSEGKFDKFLEERAKAADRLPNLSS (domain or fragment, human, UniProt O60784-2 437-463, looked up, monomer by light scattering and ultracentrifugation; also called Tom1 MBM; source: E. coli BL21 (DE3), purified (Ni-NTA, SEC); not shown: thioredoxin, N-terminal, cleaved; His6, N-terminal, cleaved) [Tom1(437–463), Myosin VI-binding motif] | 1

molecular target: B2; experiment: ITC; 25 °C, 20 mM Tris pH 7.9, 100 mM NaCl, 1 mM DTT; 50 µM protein in the cell, 500 µM in the syringe; one-site binding model; conditions: both partners purified

Binder | Kd [nM]
B1 | 2130

molecular target: B1; experiment: as above; conditions: both partners purified

Binder | Kd [nM] | dH [kcal/mol] | stoichiometry N
Tom1(437–493) (domain or fragment, human, UniProt O60784-2 437-493, looked up, source: E. coli BL21 (DE3), purified (Ni-NTA, SEC); not shown: thioredoxin, N-terminal, cleaved; His6, N-terminal, cleaved) GVTSEGKFDKFLEERAKAADRLPNLSSPSAEGPPGPPSGPAPRKKTQEKDDDMLFAL | 760 | -12.7 ± 0.11 | 0.83 ± 0.01
B2 |  | -7.61 ± 0.09 | 1.44 ± 0.01
Tom1(392–463) (domain or fragment, human, UniProt O60784-2 392-463, looked up, 15N-labelled in one NMR titration; source: E. coli BL21 (DE3), purified (Ni-NTA, SEC); not shown: thioredoxin, N-terminal, cleaved; His6, N-terminal, cleaved) TDGLAGALDARQQSTGAIPVTQACLMEDIEQWLSTDVGNDAEEPKGVTSEGKFDKFLEERAKAADRLPNLSS | 760 | -10.6 ± 0.16 | 0.91 ± 0.01
GVTSEGKFDKFLEERAKAADRLPNLSS (domain or fragment, human, UniProt O60784-2 437-463, looked up, monomer by light scattering and ultracentrifugation; also called Tom1 MBM; source: E. coli BL21 (DE3), purified (Ni-NTA, SEC); not shown: thioredoxin, N-terminal, cleaved; His6, N-terminal, cleaved) [Tom1(437–463), Myosin VI-binding motif] | 670 | -14.9 ± 0.1 | 0.74 ± 0.01
Tom1(392–493) (domain or fragment, human, UniProt O60784-2 392-493, looked up, 15N-labelled in one NMR titration; source: E. coli BL21 (DE3), purified (Ni-NTA, SEC); not shown: thioredoxin, N-terminal, cleaved; His6, N-terminal, cleaved) TDGLAGALDARQQSTGAIPVTQACLMEDIEQWLSTDVGNDAEEPKGVTSEGKFDKFLEERAKAADRLPNLSSPSAEGPPGPPSGPAPRKKTQEKDDDMLFAL | 930 | -9.9 ± 0.11 | 1.12 ± 0.01
